Measured values published in publication PMC4324353.
Like-named read-outs stand apart in the source and are kept apart here.

What was measured:
[1] = target: T1, latrunculin B bound actin (A. castellani actin monomer) (A. castellani); experiment: fluorescence polarisation
[2] = target: T1, latrunculin B bound actin (A. …); experiment: fluorescence polarisation; remark: listed apart in the source
[3] = target: actin filaments (polymerized A. castellani actin) (A. castellani); experiment: steady state polymerization titration

Kd [1] | Kd [2] | Kd [3] | Binder
110 nM | – | – | KKDAHAMILEFIRSRPPLKKASDRQLGPPRMCEPS (domain or fragment, modifications not checked) [Spir third WH2 domain with Linker 3 (SC3)]
1140 nM | 90 to 1130 nM | – | WARFWVQVIDELRRGVRLKKSNHERT (domain or fragment, modifications not checked) [Spir first WH2 domain (SA)]
210 nM | – | 2000 nM | KKDAHAMILEFIRSRPPLKKA (domain or fragment, modifications not checked) [Spir third WH2 domain (Spir-C, SC)]
